Data on 2 molecules can be found in paper PMC10942865.

The target in the assay is T1, β-TrCP, endogenous, Q9Y297.
T1 chain: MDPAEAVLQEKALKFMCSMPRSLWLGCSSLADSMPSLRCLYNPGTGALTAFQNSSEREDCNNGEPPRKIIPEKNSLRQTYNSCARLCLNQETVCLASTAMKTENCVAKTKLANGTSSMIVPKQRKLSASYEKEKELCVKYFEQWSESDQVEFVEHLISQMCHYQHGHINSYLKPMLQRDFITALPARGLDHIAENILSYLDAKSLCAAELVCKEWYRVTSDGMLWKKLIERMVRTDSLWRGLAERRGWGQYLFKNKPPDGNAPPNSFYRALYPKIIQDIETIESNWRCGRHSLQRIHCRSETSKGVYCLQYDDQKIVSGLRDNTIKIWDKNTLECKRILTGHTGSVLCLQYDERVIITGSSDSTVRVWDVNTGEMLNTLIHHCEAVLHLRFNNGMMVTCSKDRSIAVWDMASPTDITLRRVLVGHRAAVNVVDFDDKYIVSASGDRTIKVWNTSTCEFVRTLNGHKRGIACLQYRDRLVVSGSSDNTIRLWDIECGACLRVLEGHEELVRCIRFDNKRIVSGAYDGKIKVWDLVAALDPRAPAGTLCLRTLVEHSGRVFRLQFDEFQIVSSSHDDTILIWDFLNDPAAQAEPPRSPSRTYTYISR
In words: co-immunoprecipitation (IP against Flag tag, Western blot quantification). The following applies: chain shown with the change; HEK293T cells, 48 h overexpression, N = 3; parent: est. 1.0; read off a plot. (A western blot detects proteins with antibodies after separation by electrophoresis.)

B1: Flag-PLK4 wt (polo-like kinase 4), full-length, O00444 K41R (protein)
chain: MATCIGEKIEDFKVGNLLGKGSFAGVYRAESIHTGLEVAIRMIDKKAMYKAGMVQRVQNEVKIHCQLKHPSILELYNYFEDSNYVYLVLEMCHNGEMNRYLKNRVKPFSENEARHFMHQIITGMLYLHSHGILHRDLTLSNLLLTRNMNIKIADFGLATQLKMPHEKHYTLCGTPNYISPEIATRSAHGLESDVWSLGCMFYTLLIGRPPFDTDTVKNTLNKVVLADYEMPSFLSIEAKDLIHQLLRRNPADRLSLSSVLDHPFMSRNSSTKSKDLGTVEDSIDSGHATISTAITASSSTSISGSLFDKRRLLIGQPLPNKMTVFPKNKSSTDFSSSGDGNSFYTQWGNQETSNSGRGRVIQDAEERPHSRYLRRAYSSDRSGTSNSQSQAKTYTMERCHSAEMLSVSKRSGGGENEERYSPTDNNANIFNFFKEKTSSSSGSFERPDNNQALSNHLCPGKTPFPFADPTPQTETVQQWFGNLQINAHLRKTTEYDSISPNRDFQGHPDLQKDTSKNAWTDTKVKKNSDASDNAHSVKQQNTMKYMTALHSKPEIIQQECVFGSDPLSEQSKTRGMEPPWGYQNRTLRSITSPLVAHRLKPIRQKTKKAVVSILDSEEVCVELVKEYASQEYVKEVLQISSDGNTITIYYPNGGRGFPLADRPPSPTDNISRYSFDNLPEKYWRKYQYASRFVQLVRSKSPKITYFTRYAKCILMENSPGADFEVWFYDGVKIHKTEDFIQVIEKTGKSYTLKSESEVNSLKEEIKMYMDHANEGHRICLALESIISEEERKTRSAPFFPIIIGRKPGSTSSPKALSPPPSVDSNYPTRERASFNRMVMHSAASPTQAPILNPSMVTNEGLGLTTTASGTDISSNSLKDCLPKSAQLLKSVFVKNVGWATQLTSGAVWVQFNDGSQLVVQAGVSSISYTSPNGQTTRYGENEKLPDYIKQKLQCLSSILLMFSNPTPNFH
Take B1: the ratio to parent was 0.07.

B2: Flag-PLK4 wt (polo-like kinase 4), full-length, O00444 S285A; T289A (protein)
chain: MATCIGEKIEDFKVGNLLGKGSFAGVYRAESIHTGLEVAIKMIDKKAMYKAGMVQRVQNEVKIHCQLKHPSILELYNYFEDSNYVYLVLEMCHNGEMNRYLKNRVKPFSENEARHFMHQIITGMLYLHSHGILHRDLTLSNLLLTRNMNIKIADFGLATQLKMPHEKHYTLCGTPNYISPEIATRSAHGLESDVWSLGCMFYTLLIGRPPFDTDTVKNTLNKVVLADYEMPSFLSIEAKDLIHQLLRRNPADRLSLSSVLDHPFMSRNSSTKSKDLGTVEDSIDAGHAAISTAITASSSTSISGSLFDKRRLLIGQPLPNKMTVFPKNKSSTDFSSSGDGNSFYTQWGNQETSNSGRGRVIQDAEERPHSRYLRRAYSSDRSGTSNSQSQAKTYTMERCHSAEMLSVSKRSGGGENEERYSPTDNNANIFNFFKEKTSSSSGSFERPDNNQALSNHLCPGKTPFPFADPTPQTETVQQWFGNLQINAHLRKTTEYDSISPNRDFQGHPDLQKDTSKNAWTDTKVKKNSDASDNAHSVKQQNTMKYMTALHSKPEIIQQECVFGSDPLSEQSKTRGMEPPWGYQNRTLRSITSPLVAHRLKPIRQKTKKAVVSILDSEEVCVELVKEYASQEYVKEVLQISSDGNTITIYYPNGGRGFPLADRPPSPTDNISRYSFDNLPEKYWRKYQYASRFVQLVRSKSPKITYFTRYAKCILMENSPGADFEVWFYDGVKIHKTEDFIQVIEKTGKSYTLKSESEVNSLKEEIKMYMDHANEGHRICLALESIISEEERKTRSAPFFPIIIGRKPGSTSSPKALSPPPSVDSNYPTRERASFNRMVMHSAASPTQAPILNPSMVTNEGLGLTTTASGTDISSNSLKDCLPKSAQLLKSVFVKNVGWATQLTSGAVWVQFNDGSQLVVQAGVSSISYTSPNGQTTRYGENEKLPDYIKQKLQCLSSILLMFSNPTPNFH
B2: the ratio to parent was 0.03.
